Assay: soluble on expression in E. coli; label from the status in PepcDB or PDB records
With “MGSDKIHHHHHHMTIDPIKSTTLAQFDAAEQTALAQLALKVQHAFVTGAGGFLGKAICLRLLAAGIKVTGFARGHYPELEALGVVMLQGDLVNKDQLQQAMQGCDIVFHVASKAGVWGDRDSYFCPNVKGAANVIAACKTLKINKLVYTSTPSVTFAGQDESGIDESTPYATSFLNYYAHSKAIAEKMMLDANQVGDVSVENTAVTQVTQVTQATTATISDNNLATTQVAIPNTSQVTAPYALKTVALRPHLIWGPGDPHLVPRVLARCRLDKLKLVGHEDKLVDTIYIDNAAYAHVLAALELCQAKPKCQGKAYFLSNDEPITMAKMLNLILACDALPPVTKRVPQSVAYVAGAVLETVYFLLKKQEEPMMTRFVARQLSCSHYFDISAAKRDLGYRALVSINEGMARLKASL” the “soluble on expression in E. coli” value was “not soluble”. With “MGSDKIHHHHHHMTIGLSCNALKYGGGLERYAIDLARGLADAGVRPLVFARSFDSSVPEYQCVEPRRINVSFLPGKCRDAWFSWRLRAARRAAPVDVLIGCNRVDSSDIAICGGTHLGFLDAIGRMPTFSDRRQIALERRQYARARFVVAHSMLMRDELRRFYGLSDDKIRVLFPPVDAARFTPVDAVRRAELRTRFGFADDEVVLLFPSSSHERKGLPLIEAILRDAGPRVVVAVAGRPPERTSERLRYVGYVKDIEDGYRAADFTILASKYEPFGLVGVESVMCGTPVILPSNIGCCDAIAPSAKLVFAPGDAAGLRGMLDEAVRRVRAGAVRVESGAAARAAIQYDPSVARHVAQLLDLAAEAASDRRNGGR” the “soluble on expression in E. coli” value was “not soluble”. For “MGSDKIHHHHHHMTIMSIGIIIASHGEFAAGIHQSGSMIFGEQEKVQVVTFMPNEGPDDLYAKFNNAVAAFDAEDEVLVLADLWSGSPFNQASRVMGENPERKFAIITGLNLPMLIQAYTERLMDAAAGVEKVAANIIKEAKDGIKALPEELNPVEEVASAAAAPVAQTAIPEGTVIGDGKLKINLARLDTRLLHGQVATAWTPDSKANRIIVASDNVAKDDLRKELIKQAAPGNVKANVVPIQKLIEISKDPRFGETHALILFETPQDALRAIEGGVPIKTLNVGSMAHSTGKTLVNTVLSMDKEDVATFEKMRDLGVEFDVRKVPNDSKKDLFDLINKANVK”, the “soluble on expression in E. coli” value was “not soluble”. In the case of “MGSDKIHHHHHHMTKDQQNIERGSVINVEILNAAHGGQGIAKYDGRVIFVKGAFPGDRLSANITHVKKKFARATIASIEMPSPLRMQQRCLAAANGAGCCDFGEFDPEIEGRYKADLVLEQLERLGKVSQPPTCEVVSFGSPTQWRTRMRLGVDAQGRAGGFASQSREVVSGVPCSQGVMGLLDGIVGAEQNVLRFTPGSQVVVVCDDLGQRTVVETQPAPRGKRTESMVKVVEGTGKVSQVVDGVTFELPATGFWQSHKDAAQAYADTIREWFGSLIIRNTDSSLVAWDLYGGCGSFASAILSAVDNHGVVHCVESAPAAVSAGKRALSQLVEDQKIVFHTETVERAMNQLPAPTLVVLDPPRVGAGAETVRAIAQSGPQAAIHIGCDPATFARDIAEWSRNGFILEKLRVFDAFPGTHHCETIGLLTKKN”, the “soluble on expression in E. coli” value is reported as “not soluble”. With “MGSDKIHHHHHHMTKILIVLSEWGYWGEELVGPLETFDAAGYQVDFATPNGKRPVALGVSMDPTFVDPPLGRPVTTQDMADKVRQLDDTNNPRLNNPKNLREWLPERPYWSSPKFLREMEEYYRLLDEVRQRDLQTYDAILIVGGSGPMVDLADNQRVHDLILSFYQMGKPVAAECYGVACLAFARDIGDRKSIIWGKHVTGHCLEYDYKDGTGFNGTNIDPCLNNINFGTPFYPLEYILRDATGPDGQYHGNVGRPTSVIVDYPFITGRSTPDSYLTGQKLVEVLEKGLKRYGW” the “soluble on expression in E. coli” value was “not soluble”. In the case of “MGSDKIHHHHHHMTKITVLSGKGGTGKTTVSVNMAKALSESYRVQLLDADVEEPNDHIFFNVDVSFEEPVHLMIPVVDNSVCIRCGECASTCQFGAISVFPSGTFVFESLCHGCGACSIMCPVNAISERPKEIGKIRFGTADGNISFGMGILNIGERTGVPVIRKLKKHIDEKADVVIVDAPPGTSCPVVESLRNTDFALLVTEPTAFGLHDLKLAVELTKEMGIPSGIVVNRYIPGNTIIEEFADEEGIPVLLKIPFKREIASLCAEGKLIVEAFQDMKKDFLELFEKIEVMVR”, the “soluble on expression in E. coli” value is reported as “not soluble”. With “MGSDKIHHHHHHMTKKRIFVTGASGCIGHYISETLIQETDYELYLLVRNPSKLQVDTQIRPGITVLQGDMQNISQFADLLSTIDIAVLTATAWGGEQTFDINVSKTIELLNLLDPDRCQQVIYFSTASVLDSHNQPLKEAGEIGTDYIRSKYECLHKISELGIASKITTVFPTLVLGGDSKKPYSHLTSGIPEVTKYVNLIRFLQADGSFHFIHGKDIASVVKYLIVNPPQENTSRRLVLGQKRLTANQAIEEVCTYLGKKISFRIPLSLSLANLIIAVFRIQMADWDRFCMNYRHFTYDTVINPDSFGLPNYCATMSDVLKISGVDSSHQ” the “soluble on expression in E. coli” value was “not soluble”. For “MGSDKIHHHHHHMTKLQLKYRELKIISVIAASENISHAATVLGIAQANVSKYLADFESKVGLKVFDRTTRQLMLTPFGTALLPYINDMLDRNEQLNNFIADYKHEKRGRVTIYAPTGIITYLSKHVIDKIKDIGDITLSLKTCNLERNAFYEGVEFPDDCDVLISYAPPKDESLVASFITQYAVTAYASQRYLEKHPISRPDELEHHSCILIDSMMIDDANIWRFNVAGSKEVRDYRVKGNYVCDNTQSALELARNHLGIVFAPDKSVQSDLQDGTLVPCFQQPYEWWLDLVAIFRKREYQPWRVQYVLDEMLREIRHQLAQSQQLRPEQAAESED”, the “soluble on expression in E. coli” value was “not soluble”. With “MGSDKIHHHHHHMTKNNIAVKVDHVSKYFKLPVESTQSLRTALVNRFKGIKGYKKQHVLRDIDFEVEKGDFFGIVGRNGSGKSTLLKIISQIYVPEQGKVTVDGKLVSFIELGVGFNPELTGRENVYMNGAMLGFTTEEVDTMYQDIVDFAELQDFMNQKLKNYSSGMQVRLAFSVAIKAQGDVLILDEVLAVGDEAFQRKCNDYFLERKNSGKTTILVTHDMAAVKKYCNKAVLIDDGLIKAIGEPFDVANQYSLDNTDQIVEDKQEEEAAVQEEEQIVVDNLEVKLLSANRMTPRDSIRFEISYNVLADVGTYIALSLTDVDRNIWIYNDNSLDYLSSGSGKKRVFYECHLKSLNDIKLKLEVTVRDKQGQMLAFSSATNTPIISINRDDLEGDDKSAMDSASGLIQRNGQWQFS” the “soluble on expression in E. coli” value was “not soluble”. With “MGSDKIHHHHHHMTLFLQKGYEETTMREIVHKSGRSKGAIYHHFSSKQEILNFQISLEMDNLRQCLDALISNNQLNAQQKFKGILTYFFENPSLTELTRLHWAEKLPFALLETLKNSLTVVAQYIEAIIQQEIKEKKLNCQYSKELSEILVLLFDIWLDPSIVDFDYQTACQRIDFIALLLEKFDLPLLDENDKNKLKNGLKHYDEKNTL” the “soluble on expression in E. coli” value was “not soluble”. For “MGSDKIHHHHHHMTLLDRFDGGFARDGEDIIAGSRIEDARIHNRRLVFETIFQRGPISRVEISAIVGLKPQTISSITRELLEQELIVEAGRSSGLRGQPQIYLEANAEAGFSIGVHLDQNQCHILVFDLKRQERARKSMRCDTANPDVTVRMLAQTITTLLHDNALPAERIWGLGLVLPTFGSDVYDFDFSMRHWEAWRDASFAEDLQRLTGFAVLVENDGTAAAIGERLHRHDAQEASFAYFYIGHGAGAGLIIDGYPFKGVGGNAGEIGLLPILGLGANPVWPDNPSSAVQGGVLSIGGLAAACGLSEQSMDEQSILSLLERRDHRLMDWLASAASVLRDVCAVIEVMFDPGFIAVGGALPRALVERLVDRAYPLRPTPSARRDRALPRLLPATLIEDAAVTGAAMLPIFVTTSHNFRHLYFRQILADDRS”, the “soluble on expression in E. coli” value was “not soluble”. With “MGSDKIHHHHHHMTLRISQLAQKFGLSRSTLLYYEKQGLIRGRRLDNGYRVYSENDLQRLILIQKLQAGGLTLKECLACLDARIDKALLQTRLAELDADIAQKQASRTLLAALLGEGDLKAWHESLTKEAPEAHLDWLQTQGFSEKEALHLTWLSKDMNEHDKFMADFMQIFSPLTRWAPGSEADTLKALASVPLTPTRILDIGCGKGLATRMLAKHTKASITAIDNEEDALTELQQHLQHRNLASRVSTLCASMTDIPLPAASADLIWAEGSAYIMGVEQALKSWRKLLVDNGVLVLSDLVWLTDDKAPEAVAFWQQDYPAMTSVEARMAQMQAAGFEVIDSFSLSNEAWKSFTGPLAARVDEVSEQLAGSQALANVQRELGIFSRFLGQFGYQFFVLQKRG” the “soluble on expression in E. coli” value was “not soluble”.

Source: the DeepSol protein solubility set
